pKd: −log10 of the molar value.
Legend:
Assay in all cases: solid-phase binding assay
[1] = target: alpha-dystroglycan from wild-type (C57BL/10) mouse heart (mouse (endogenous in heart)) (UniProt Q62165)
[2] = target: alpha-dystroglycan from dystrophin/utrophin-deficient (dko) mouse heart (mouse (endogenous in heart)) (UniProt Q62165)
[3] = target: alpha-dystroglycan from dystrophin-deficient (mdx) mouse heart (mouse (endogenous in heart)) (UniProt Q62165)

- pKd [1]: 7.67
- pKd [2]: 7.73
- pKd [3]: 7.48
Substance: Engelbreth-Holm-Swarm (EHS) laminin (from UniProt P19137 25-3083; P02469 22-1786; P02468 34-1607) (complex)
